According to patent publication US10421785B2, “Delta receptor agonist peptides and use thereof” (BAR-ILAN UNIVERSITY, priority 2016, dated 2019):
“Also recorded” adds a separate entry of the source. Where no end group is shown, it is not given here.

Columns and labels:
Sprague-Dawley rats = experiment: Cue-induced cocaine-seeking behavioral test after forced abstinence
C6 cells membrane (DOR) = molecular target: T1, C6 cells membrane (DOR) (Rattus norvegicus, UniProt P33533); experiment: Microscope validation of GNP-peptide binding to C6 cells; assay type: cell-based
T1 construct: delta opioid receptor expressed by the C6 cells; endogenous in cells; host or cells: C6 glioma cells
T1 sequence (P33533 whole entry): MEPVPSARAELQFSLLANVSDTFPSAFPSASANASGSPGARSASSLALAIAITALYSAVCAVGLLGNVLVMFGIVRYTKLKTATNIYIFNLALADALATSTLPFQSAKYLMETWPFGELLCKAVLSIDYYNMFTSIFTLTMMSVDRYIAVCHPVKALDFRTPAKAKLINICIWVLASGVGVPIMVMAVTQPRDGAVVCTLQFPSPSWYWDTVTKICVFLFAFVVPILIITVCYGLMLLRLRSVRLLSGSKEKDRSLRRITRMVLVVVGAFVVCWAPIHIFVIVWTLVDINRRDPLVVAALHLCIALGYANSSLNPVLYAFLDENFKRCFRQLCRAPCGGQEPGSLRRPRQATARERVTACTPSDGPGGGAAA
Description: (§1) C6 cells (1×10^6) were cultured in 5 ml glucose-free DMEM medium containing 5% FCS, 0.5% Penicillin and 0.5% Glutamine. Then, excess amounts of GNPs were added and incubated with cells for 30 minutes at 37° C.
Fluorescent coated (Rhodamine B, Sigma, Israel) GNP-peptidl were incubated with C6 cells for 30 min at 37° C. The cells were subsequently washed three times in PBS prior to confocal imaging using Leica TCS SP5 with Acousto-Optical Beam Splitter microscope to acquire fluorescent and bright field images.
A Nikon i50 microscope (Tokyo, Japan) equipped with a hyperspectral imaging system (CRI, USA) was used to obtain dark-field images (20× magnification) in order to assess nanoparticle uptake.

δ-opioid receptor = molecular target: T2, δ-opioid receptor (Rattus norvegicus, UniProt P33533); experiment: Competitive flow cytometry assay of free peptides against DSLET-FITC on C6 cells; assay type: binding; conditions: 100 nM peptide, 3.5 nM DSLET-FITC
T2 construct: delta opioid receptor expressed by the C6 cells; endogenous in cells; host or cells: C6 glioma cells
T2 sequence (P33533 whole entry): as above
Description: (§2) The derived peptides were synthesized (Pepmic, Suzhou, China). The binding specificity of the peptides was tested in a competitive assay. C6 cells were grown to 70-80% confluence and removed from the culture, centrifuged and re-suspended to 2×10^6/ml in PBS/0.05% FBS.DSLET-FITC (3.5 nM) was mixture with 0, 3.5, 10, 50 or 100 nM of peptide. In parallel, 2 nM DAMGO-FITC was mixture with 0, 2, 10, 50 or 100 nM of peptide. These mixtures (500 μl) were added to the cells for 5 min at 37° C. Then 500 μl PBS was added and the tubes centrifuge for 5 min at 4250 rpm. The cell pellet was re-suspended in PBS and analyzed by flow cytometry.

[1] = molecular target: T3, δ-opioid receptor (DOR) expressed on C6 cells (Rattus norvegicus, UniProt P33533); experiment: Intracellular cyclic AMP in C6 cells (Direct cAMP kit / cAMP ELISA); assay type: cell-based; conditions: for reduction of cAMP levels: 100 nM, C6 cells
T3 construct: delta opioid receptor expressed by the C6 cells; endogenous in cells; host or cells: C6 glioma cells
T3 sequence (P33533 whole entry): as above
Description: To test the pharmacological function of the peptides showing positive competitive binding versus the DSLET analogue and negative competition versus the DMGO analogue were tested for agonistic activity using the Direct cAMP kit (Enzo). The analogue DSLET was used as a positive control.

μ-opioid receptor = molecular target: T4, μ-opioid receptor (Rattus norvegicus, UniProt P33535); experiment: Competitive flow cytometry assay of free peptides against DAMGO-FITC on C6 cells; assay type: binding; conditions: 2 nM DAMGO-FITC
T4 construct: 50% expressed the μ-opioid receptor; endogenous in cells; host or cells: C6 glioma cells
T4 sequence (P33535 whole entry): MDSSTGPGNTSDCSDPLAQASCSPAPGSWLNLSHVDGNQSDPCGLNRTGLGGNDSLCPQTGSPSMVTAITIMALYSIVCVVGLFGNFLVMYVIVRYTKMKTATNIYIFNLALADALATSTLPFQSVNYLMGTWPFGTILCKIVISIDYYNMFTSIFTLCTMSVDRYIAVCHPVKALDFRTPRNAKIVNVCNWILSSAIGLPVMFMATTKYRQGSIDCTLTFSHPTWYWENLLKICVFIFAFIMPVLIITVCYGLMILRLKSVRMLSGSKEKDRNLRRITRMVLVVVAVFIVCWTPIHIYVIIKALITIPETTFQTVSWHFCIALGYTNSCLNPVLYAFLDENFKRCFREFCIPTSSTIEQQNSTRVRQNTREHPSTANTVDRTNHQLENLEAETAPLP
Description: as §2

[2] = molecular target: T5, delta opioid receptor expressed by the C6 cells (Rattus norvegicus, UniProt P33533); experiment: FACS analysis of GNP-peptide binding to C6 cells
T5 construct: delta opioid receptor expressed by the C6 cells; endogenous in cells; host or cells: C6 glioma cells
T5 sequence (P33533 whole entry): as the sequence (P33533 whole entry) above
Description: as §1
Cells were incubated with GNP-peptide for 15 min at 37° C. and then washed with PBS, followed by trypsin treatment. Then, cells were centrifuged twice (5 min in 1000 rpm) to wash out unbound nanoparticles. Cells were analyzed for cell-associated NPs by Flow Cytometry (FACS; Cellquest software; Becton-Dickinson & Co., Franklin Lakes, N.J.).

With `Oc1ccc2c3c1O[C@H]1c4[nH]c5ccccc5c4C[C@@]4(O)[C@@H](C2)N(CC2CC2)CC[C@]314` [naltrindole, reference compound] the cue-induced cocaine-seeking behavior (Sprague-Dawley rats; intra-NAc infusion, 1 μg, day 1 of forced abstinence) was “increased cue-induced cocaine-seeking behavior” and the “binding of GNP conjugated peptide 1 to the cells membrane after blocking the DOR” value (C6 cells membrane (DOR)) was “significant decrease in the binding; also recorded: prevented the binding of the peptide to the cells membrane”.
With CTAP [reference compound] the cue-induced cocaine-seeking behavior (Sprague-Dawley rats; intra-NAc injection, 3 μg and 30 ng, 1 day or 30 days of forced abstinence) was “no behavioral effect”.
DPDPE [reference compound] was tested, and the “active lever presses (seeking behavior) vs CSF group” value (Sprague-Dawley rats; injected into the NAc once after 30 days of abstinence, observed at days 30 and 60) was “reduced seeking behavior”.
In the case of IIAGEYKQMLTL [Peptide 2], the “maximum inhibition of DSLET-FITC binding” value (δ-opioid receptor) is reported as 45%, the “reduction of cAMP levels” value [1] is reported as roughly 80% and the “inhibition of DAMGO-FITC binding to the μ-opioid receptor” value (μ-opioid receptor) is reported as “neither Peptide 1 or 2 inhibited binding”.
NGNDRTDQMPLP [Peptide 1] was tested, and the “maximum inhibition of DSLET-FITC binding” value (δ-opioid receptor) was 48%, the “reduction of cAMP levels” value [1] was roughly 80% and the “active lever presses vs CSF group” value (Sprague-Dawley rats; injection into the NAc, two doses) was “decreased active lever presses”. For the same compound, the “inhibition of DAMGO-FITC binding to the μ-opioid receptor” value (μ-opioid receptor) was “neither Peptide 1 or 2 inhibited binding”.
“peptide 1 conjugated to gold nanoparticles: 20 nm PEG-coated gold nanoparticles with the peptide covalently conjugated to the carboxylic group of SH-PEG-COOH (NGNDRTDQMPLP; also: covalently conjugated to carboxyl of SH-PEG-COOH on 20 nm PEG-coated gold nanoparticles, site not given here)” was tested, and the “binding to the delta opioid receptor on C6 cells by FACS relative to vehicle” value [2] was “higher affinity and exhibited better binding to the cells relative to vehicle”, the “cAMP decreased to % from the initiation state” value ([1]; GNP conjugated to peptide 1, C6 cells) was 80.70% and the “active lever presses vs CSF group” value (Sprague-Dawley rats; GNP conjugate, injection into the NAc) was “decreased active lever presses”. The “active lever presses vs CSF group” value (Sprague-Dawley rats; GNP conjugate, intra-nasal, tested two hours later) was “Significantly less active lever presses”, the “binding to the C6 cells membrane (microscope)” value (C6 cells membrane (DOR); listed as Gold nanoparticle (GNP) conjugated peptide 1) was “bind mainly the C6 cells membrane” and the “binding to the C6 cells membrane (microscope)” value (C6 cells membrane (DOR); listed as Peptide 1 conjugated to GNP) was “increased binding to the C6 cells membrane”.
